Test results reported in the supplement of paper PMC12764529.
± gives the half width of the 95% confidence interval.

Assay: folding stability dG unfold (combined trypsin and chymotrypsin); higher = more stable
Outline: (§1)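 How resistant each design was to proteolysis was captured as K50, inferred by Bayesian fitting of sequencing counts. Unfolding free energy was then derived relative to a sequence-predicted unfolded-state K50 and a shared folded-state K50, per protease or combined. Digestion used trypsin and chymotrypsin at 11 threefold-diluted concentrations plus a no-protease condition, on mini-proteins under 80 residues without cysteine in a PA-tagged cDNA display construct. Designs were kept only when AlphaFold2 dimer inter-PAE was above 15.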

Sequence	folding stability dG unfold [kcal/mol]
SAGGMPEPRPIPLTLTLLVDPEDPESVEEKLREFFEAFGADEITRVERELLPDGRALVTAEVLVNEPVSAGG [r13_222_TrMRF]	1.15 ± 0.061
SAGGLTWEEAREIAEEIANMEVPSPNGMPMKVKVDIEIDPPNGYFRVDVKVEMPGKPQKFPLEIPLKSAGGS [r16_812_TrROS]	0.673 ± 0.25
SASMTLTIPLPLKPGDRVVVEATHPLGYGFETEELPDGSVRLTLTVPTPDAPPATLHIRVYEPNTGKLASAG [r14_39_TrMRF]	2.85 ± 0.1
SAGGSMVEVIVIDKDGKEHKILIPPELKPEEVAEKVKKFLEDEGYEVESIEIEELPEGFSKVIVNASAGGSA [r2_148_TrMRF]	1.68 ± 0.21
SAGGSAGGDPPNVKIEPEIEPRRDPDGKPYVKIPYTIELPDGRPIQIDMWIDPKNGNQGPHIHISAGGSAGG [r6_298_TrROS]	0.64 ± 0.54
SAGGSAGGSAGGNGKKEITIFIKVPPGMPPNEIKDELKDLGLTNIEIERHNNWVMITFRSAGGSAGGSAGGS [r10_868_TrROS]	1.58 ± 0.12
SAGGSAGGSAIADEFAEKNPNFQVEVERHTFEMTQYDPDGGWRQHRMFMISITIVPPGDPLSAGGSAGGSAG [r3_358_TrROS]	3.44 ± 0.3
SAGGNIKVRREPRPNGQYRVKITIPDPDGKPIEIEYRMPPGMDSPEQAQKEAIEVVKEFAKKHNIKISAGGS [r8_464_TrROS]	0.605 ± 0.21
SAGGSASVTRMIQIPPGDPNMSIEEAIEKIKIYLPNGKPVTIEIDRIWPDPNRYFFMITIKDGKPVSAGGSA [r15_331_TrROS]	1.86 ± 0.15
SAMKITIEEVEVKEGDTVTIRIDASEEELENFLKELAEKLGAEVVEVEVKKNENGSLEVTVKVKEVKKPSAG [r14_655_TrROS_Hall]	1.04 ± 0.17
MKIKEVKVFPLPGENTIVILVTGEFDSFYIPETGKPIPSSAKITLIEVIKVPEDSDEAEVESSLLILPDAES [r1_147_TrMRF]	1.4 ± 0.16
SAGGSAGGSAGGELVLKIKVKPGEKVKLKLKLFDKNGKLVEEFEVEVEVVKEGDTLYIRLSAGGSAGGSAGG [r7_63_TrROS_Hall]	3.67 ± 0.11
SAGGSAGGSAGGSGNPVVRVFEFDDYIAVVTFNPGDGSVEVLSVGKVPPAAIPGSPELSSAGGSAGGSAGGS [r4_21_TrMRF]	1.17 ± 0.036
SAGGSAKGLKVTFSHPDVEILSVKSYPGLGLAEVEFRYGDKLYRALVRFEPDDGGIAEATVEPVPGSAGGSA [r15_297_TrMRF]	2.55 ± 0.079
SMPLIIIAKKNKDGTGTILIKKGDKVIEIEFEKNIKPEELKKKAIETALTLKKKTEELGIPIEIKEIIFESA [r9_751_TrMRF]	2.1 ± 0.091
SAGGSAGGSAGGDNTKTLVLVIKVDENVTPEEIKKKLKDLGFKNVKIEKVGNYAVVTVSSAGGSAGGSAGGS [r10_868_TrMRF]	2.92 ± 0.052

Assay: folding stability dG unfold from trypsin proteolysis; higher = more stable
Outline: as §1

Sequence	folding stability dG unfold [kcal/mol]
SAGGSAGGSAGGMEVKTVEDPKGLTVEVSPPVGTATTVYGDETVTHTLSPSATVALEPASAGGSAGGSAGGS [r10_637_JUSTAS]	-0.0233 ± 0.042
SAPIKIEIDVHQPPPGDYMIMVRIRPPGDGKEFPRMFPFPPDDAEKILENLLSQFPGYEIDDIEPMRYPSAG [r14_969_TrROS]	1.26 ± 0.049
SAGGSAGGSAGVPVVVRTVTGPEGGYVVVEFPNLKKVVLLPFTDGKPRPVVFDTDEVLKLVSAGGSAGGSAG [r3_426_TrMRF]	1.04 ± 0.04
SAGGWRLRIHIENPGNGRWITHTFPMPPGNIEKIADDMLEMLPGWKITGVEIVYEPGWITITARVKPKSAGG [r13_196_TrROS]	2.252 ± 0.016
SAGGSAMTTVTWTFPPSTSVEEAIEALKAQLEAERNEKIEIPSISVSTTGDTITVTLPIKIEPLPASAGGSA [r15_105_JUSTAS]	1.86 ± 0.049
SAGGKVVKTKEEAEKLVKEGKAEVVSVKKVKVPVNGKEKEVEVLEVKIKDKKTKKEKTIVLTKEQLKSAGGS [r16_271_TrROS_Hall]	-0.319 ± 0.36
SAPIDIDLERDPEPGRLKATVEFPWPNGWMHRMTFDLQWPRIKVEHYPFKDGEPEPQEIEIPIPANAKVSAG [r14_64_TrROS]	0.0882 ± 0.17
SAGGSAGGSAGMYYVIKRPGKVEILPEEEVPKVIEEDPNVEVKKFDSEEEAKKALEELLKSAGGSAGGSAGG [r11_60_JUSTAS]	0.539 ± 0.039
SAGAAPGEPVVLVLPDGTVIPVIPRPDGSATLDAVAPSADGTYTVTASLPATGTTVTLELSAPPSFVAASAG [r5_394_TrMRF]	1.43 ± 0.038
SAMVVIKPEGDKIVVEITLPDGSTKVIELPEVEKIEIKGDTLIITDPKTGKKIIPENTTVSNPKIEPAKSAG [r14_83_JUSTAS]	-0.167 ± 0.065
SAGGSAETIETVSSTFPVFSEDDKPVAVVKTYIFKFEDGELVLTEVFTPDGKPVAVKVASLDEFLNSAGGSA [r15_755_TrMRF]	1.27 ± 0.025
SAGKPESFSIEAPPIAPPEFPLGGSYRTLPNGEVLVLITLPDGTVLVLPSLDELRELRESGLPIDISPSSAG [r5_42_TrMRF]	0.959 ± 0.017
SAGGSAGGSAMTVRFGKPEELEKAEELAEEIAKAHPGKPIKVTVTKDPNNPDEYTVTITEESAGGSAGGSAG [r3_131_JUSTAS]	-0.24 ± 0.16
SAGGSAGGMVYKIRDKETGKVYEVTIDEETNEITVYDVKTGKPVKTVNMTIEELKEAGYEVEPVSAGGSAGG [r6_831_TrROS_Hall]	3.61 ± 0.16
SAGGSAGGSGMTTTLTTEPRPDSTVVTTTTTTPTSVTTTTTVYDPDGNVVSTTTTTTPLPATSSAGGSAGGS [r12_710_JUSTAS]	1.73 ± 0.059
SAGGMPEPRPIPLTLTLLVDPEDPESVEEKLREFFEAFGADEITRVERELLPDGRALVTAEVLVNEPVSAGG [r13_222_TrMRF]	1.03 ± 0.03

Sequence	folding stability dG unfold [kcal/mol]
SAGGLTWEEAREIAEEIANMEVPSPNGMPMKVKVDIEIDPPNGYFRVDVKVEMPGKPQKFPLEIPLKSAGGS [r16_812_TrROS]	0.607 ± 0.16
SASMTLTIPLPLKPGDRVVVEATHPLGYGFETEELPDGSVRLTLTVPTPDAPPATLHIRVYEPNTGKLASAG [r14_39_TrMRF]	2.28 ± 0.051
SAGGSMVEVIVIDKDGKEHKILIPPELKPEEVAEKVKKFLEDEGYEVESIEIEELPEGFSKVIVNASAGGSA [r2_148_TrMRF]	2.05 ± 0.078
SAGGSAGGDPPNVKIEPEIEPRRDPDGKPYVKIPYTIELPDGRPIQIDMWIDPKNGNQGPHIHISAGGSAGG [r6_298_TrROS]	0.817 ± 0.24
SAGGSAGGSAGGNGKKEITIFIKVPPGMPPNEIKDELKDLGLTNIEIERHNNWVMITFRSAGGSAGGSAGGS [r10_868_TrROS]	1.15 ± 0.06
SAGGSAGGSAIADEFAEKNPNFQVEVERHTFEMTQYDPDGGWRQHRMFMISITIVPPGDPLSAGGSAGGSAG [r3_358_TrROS]	2.91 ± 0.19
SAGGNIKVRREPRPNGQYRVKITIPDPDGKPIEIEYRMPPGMDSPEQAQKEAIEVVKEFAKKHNIKISAGGS [r8_464_TrROS]	0.423 ± 0.17
SAGGSASVTRMIQIPPGDPNMSIEEAIEKIKIYLPNGKPVTIEIDRIWPDPNRYFFMITIKDGKPVSAGGSA [r15_331_TrROS]	1.21 ± 0.088
SAMKITIEEVEVKEGDTVTIRIDASEEELENFLKELAEKLGAEVVEVEVKKNENGSLEVTVKVKEVKKPSAG [r14_655_TrROS_Hall]	1.2 ± 0.11
MKIKEVKVFPLPGENTIVILVTGEFDSFYIPETGKPIPSSAKITLIEVIKVPEDSDEAEVESSLLILPDAES [r1_147_TrMRF]	1.08 ± 0.067
SAGGSAGGSAGGELVLKIKVKPGEKVKLKLKLFDKNGKLVEEFEVEVEVVKEGDTLYIRLSAGGSAGGSAGG [r7_63_TrROS_Hall]	2.69 ± 0.064
SAGGSAGGSAGGSGNPVVRVFEFDDYIAVVTFNPGDGSVEVLSVGKVPPAAIPGSPELSSAGGSAGGSAGGS [r4_21_TrMRF]	1.08 ± 0.024
SAGGSAKGLKVTFSHPDVEILSVKSYPGLGLAEVEFRYGDKLYRALVRFEPDDGGIAEATVEPVPGSAGGSA [r15_297_TrMRF]	1.58 ± 0.024
SMPLIIIAKKNKDGTGTILIKKGDKVIEIEFEKNIKPEELKKKAIETALTLKKKTEELGIPIEIKEIIFESA [r9_751_TrMRF]	1.77 ± 0.082
SAGGSAGGSAGGDNTKTLVLVIKVDENVTPEEIKKKLKDLGFKNVKIEKVGNYAVVTVSSAGGSAGGSAGGS [r10_868_TrMRF]	2.58 ± 0.074
